Laboratory results as given in patent publication US7588931B2, “High arachidonic acid producing strains of Yarrowia lipolytica” (E. I. du Pont de Nemours and Company, priority 2004, dated 2009).
Entries after “also recorded” stand apart in the source; their conditions may differ.

Experiments:
GUS mRNA = experiment: Comparative analysis of promoters by quantitative (Real Time) PCR of GUS mRNA; type: cell-based, Yarrowia lipolytica; settings: for transcription activity relative to the TEF promoter: after 24 hrs in HGM, ATCC #76982 strains
Procedure: The transcriptional activities of the TEF, GPD, GPDIN, FBA and FBAIN promoters were determined in Y. lipolytica containing the pY5-30, PYZGDG, pDMW222, pDMW212 and pDMW214 constructs by quantitative PCR analyses. This required isolation of RNA and real time RT-PCR.
More specifically, Y. lipolytica ATCC #76982 strains containing pY5-30, PYZGDG, pDMW222, pDMW212 and pDMW214 were grown from single colonies in 6 mL of MM in 25 mL Erlenmeyer flasks for 16 hrs at 30° C. Each of the 6 mL starter cultures was then added to individual 500 mL flasks containing 140 mL HGM and incubated at 30° C. for 4 days. In each interval of 24 hrs, 1 mL of each culture was removed from each flask to measure the optical density, 27 mL was removed and used for a fluorometric GUS assay (as described above), and two aliquots of 1.5 mL were removed for RNA isolation. The culture for RNA isolation was centrifuged to produce a cell pellet.
The RNA was isolated from Yarrowia strains according to the modified Qiagen RNeasy mini protocol (Qiagen, San Diego, Calif.). Briefly, at each time point for each sample, 340 μL of Qiagen's buffer RLT was used to resuspend each of the two cell pellets. The buffer RLT/cell suspension mixture from each of the two tubes was combined in a bead beating tube (Bio101, San Diego, Calif.). About 500 μL of […] glass beads was added to the tube and the cells were disrupted by bead beating 2 min at setting 5 (BioPulverizer, Bio101 Company, San Diego, Calif.). The disrupted cells were then pelleted by centrifugation at 14,000 rpm for 1 min and 350 μl of the supernatent was transferred to a new microcentrifuge tube. Ethanol (350 μL of 70%) was added to each homogenized lysate. After gentle mixing, the entire sample was added to a RNeasy mini column in a 2 mL collection tube. The sample was centrifuged for 15 sec at 10,000 rpm. Buffer RW1 (350 μL) was added to the RNeasy mini column and the column was centrifuged for 15 sec at 10,000 rpm to wash the cells. The eluate was discarded. Qiagen's DNasel stock solution (10 μL) was added to 70 μl of Buffer RDD and gently mixed. This entire DNase solution was added to the RNeasy mini column and incubated at room temperature for 15 min. After the incubation step, 350 μL of Buffer RW1 was added to the mini column and the column was centrifuged for 15 sec at 10,000 rpm. The column was washed twice with 700 μL […]. RNase-free water (50 μL) was added to the column. The column was centrifuged for 1 min at 10,000 rpm to elute the RNA.
A two-step RT-PCR protocol was used, wherein total Yarrowia RNA was first converted to cDNA and then cDNA was analyzed using Real Time PCR. The conversion to cDNA was performed using Applied Biosystems' High Capacity cDNA Archive Kit (PN#4322171; Foster City, Calif.) and Molecular Biology Grade water from MediaTech, Inc. (PN# 46-000-Con; Holly Hill, Fla.). Total RNA from Yarrowia (100 ng) was converted to cDNA by combining it with 10 μl of RT buffer, 4 μl of 25×dNTPs, 10 μl 10× Random Hexamer primers, 5 μl Multiscribe Reverse Transcriptase and 0.005 μl RNase Inhibitor, and brought to a total reaction volume of 100 μl with water. The reactions were incubated in a thermocycler for 10 min at 25° C. followed by 2 hrs at 37° C. The cDNA was stored at −20° C. prior to Real Time analysis.
Real Time analysis was performed using the SYBR Green PCR Master Mix from Applied Biosystems (PN# 4309155). The Reverse Transcription reaction (2 μl) was added to 10 μl of 2×SYBR PCR Mix, 0.2 μl of 100 μM Forward and Reverse primers for either URA (i.e., primers YL-URA-16F and YL-URA-78R [SEQ ID NOs:183 and 184]) or GUS (i.e., primers GUS-767F and GUS-891R [SEQ ID NO:185 and 186]) and 7.2 μl water. The reactions were thermocycled for 10 min at 95° C. followed by 40 cycles of 95° C. for 5 sec and 60° C. for 1 min in an ABI 7900 Sequence Detection System instrument. Real time fluorescence data was collected during the 60° C. extension during each cycle. […]

[1] = test system: β-glucuronidase (GUS) reporter; experiment: Comparative analysis of promoters by histochemical analysis of GUS expression; type: cell-based, Yarrowia lipolytica; settings: ATCC #76982 strains, MM, FIG. 5B
Procedure: Comparative studies investigating the promoter activities of the TEF, GPD, GPDIN, GPM, GPAT, FBA, FBAIN and YAT1 promoters were performed, by synthesizing constructs comprising each promoter and the E. coli gene encoding β-glucuronidase (GUS) as a reporter gene (Jefferson, R. A. Nature. 14(342):837-838 (1989)). Then, GUS activity was measured by histochemical and fluorometric assays (Jefferson, R. A. Plant Mol. Biol. Reporter 5:387-405 (1987)) and/or by using Real Time PCR for mRNA quantitation.
Yarrowia lipolytica ATCC #76982 strains containing plasmids pY5-30, pYZGDG, pYZGMG, pDMW212 and pDMW214 were grown from single colonies in 3 mL MM at 30° C. to an OD600˜1.0. Then, 100 μl of cells were collected by centrifugation, resuspended in 100 μl of histochemical staining buffer, and incubated at 30° C. Staining buffer was prepared by dissolving 5 mg of 5-bromo-4-chloro-3-indolyl glucuronide (X-Gluc) in 50 μl dimethyl formamide, followed by the addition of 5 mL 50 mM NaPO4, pH 7.0.
In a separate experiment, Y. lipolytica Y2034 strains containing plasmids pY5-30, pYGPAT-GUS, pYAT-GUS and pDMW214 were grown from single colonies in 5 mL SD media at 30° C. for 24 hrs to an OD600˜8.0. Then, 1 mL of cells were collected by centrifugation. The remaining cultures were centrifuged and washed 2× with HGM, resuspended in 5 mL each of HGM and allowed to grow at 30° C. further. After 24 and 120 hrs, ˜0.25 mL of each culture were centrifuged to collect the cells. Cell samples were resuspended individually in 100 μl of histochemical staining buffer (supra). Zymolase 20T (5 μl of 1 mg/mL; ICN Biomedicals, Costa Mesa, Calif.) was added to each, and the mixture incubated at 30° C. […]

B1: FBA: Y. lipolytica fructose-bisphosphate aldolase promoter, SEQ ID NO:161 (nucleic acid, listed as Yarrowia lipolytica)
DNA: TAAACAGTGTACGCAGTACTATAGAGGAACAATTGCCCCGGAGAAGACGGCCAGGCCGCCTAGATGACAAATTCAACAACTCACAGCTGACTTTCTGCCATTGCCACTAGGGGGGGCCTTTTTATATGGCCAAGCCAAGCTCTCCACGTCGGTTGGGCTGCACCCAACAATAAATGGGTAGGGTTGCACCAACAAAGGGATGGGATGGGGGGTAGAAGATACGAGGATAACGGGGCTCAATGGCACAAATAAGAACGAATACTGCCATTAAGACTCGTGATCCAGCGACTGACACCATTGCATCATCTAAGGGCCTCAAAACTACCTCGGAACTGCTGCGCTGATCTGGACACCACAGAGGTTCCGAGCACTTTAGGTTGCACCAAATGTCCCACCAGGTGCAGGCAGAAAACGCTGGAACAGCGTGTACAGTTTGTCTTAACAAAAAGTGAGGGCGCTGAGGTCGAGCAGGGTGGTGTGACTTGTTATAGCCTTTAGAGCTGCGAAAGCGCGTATGGATTTGGCTCATCAGGCCAGATTGAGGGTCTGTGGACACATGTCATGTTAGTGTACTTCAATCGCCCCCTGGATATAGCCCCGACAATAGGCCGTGGCCTCATTTTTTTGCCTTCCGCACATTTCCATTGCTCGGTACCCACACCTTGCTTCTCCTGCACTTGCCAACCTTAATACTGGTTTACATTGACCAACATCTTACAAGCGGGGGGCTTGTCTAGGGTATATATAAACAGTGGCTCTCCCAATCGGTTGCCAGTCTCTTTTTTCCTTTCTTTCCCCACAGATTCGAAATCTAAACTACACATCACACAATGCCTGTTACTGACGTCCTTAAGCGAAAGTCCGGTGTCATCGTCGGCGACGATGTCCGAGCCGTGAGTATCCACGACAAGATCAGTGTCGAGACGACGCGTTTTGTGTAATGACACAATCCGAAAGTCGCTAGCAACACACACTCTCTACACAAACTAACCCAGCTCTCC
modifications: misc_feature: Promoter FBA
With B1 the “transcription activity relative to the TEF promoter” value (GUS mRNA) was “about 3.3 times” and the “promoter activity by histochemical staining” value [1] was “active; also recorded: much stronger than all the other promoters”.

B2: FBAIN: fructose-bisphosphate aldolase + intron promoter, SEQ ID NO:162 (nucleic acid, listed as Yarrowia lipolytica)
DNA: AAATTGCCCCGGAGAAGACGGCCAGGCCGCCTAGATGACAAATTCAACAACTCACAGCTGACTTTCTGCCATTGCCACTAGGGGGGGGCCTTTTTATATGGCCAAGCCAAGCTCTCCACGTCGGTTGGGCTGCACCCAACAATAAATGGGTAGGGTTGCACCAACAAAGGGATGGGATGGGGGGTAGAAGATACGAGGATAACGGGGCTCAATGGCACAAATAAGAACGAATACTGCCATTAAGACTCGTGATCCAGCGACTGACACCATTGCATCATCTAAGGGCCTCAAAACTACCTCGGAACTGCTGCGCTGATCTGGACACCACAGAGGTTCCGAGCACTTTAGGTTGCACCAAATGTCCCACCAGGTGCAGGCAGAAAACGCTGGAACAGCGTGTACAGTTTGTCTTAACAAAAAGTGAGGGCGCTGAGGTCGAGCAGGGTGGTGTGACTTGTTATAGCCTTTAGAGCTGCGAAAGCGCGTATGGATTTGGCTCATCAGGCCAGATTGAGGGTCTGTGGACACATGTCATGTTAGTGTACTTCAATCGCCCCCTGGATATAGCCCCGACAATAGGCCGTGGCCTCATTTTTTTGCCTTCCGCACATTTCCATTGCTCGGTACCCACACCTTGCTTCTCCTGCACTTGCCAACCTTAATACTGGTTTACATTGACCAACATCTTACAAGCGGGGGGCTTGTCTAGGGTATATATAAACAGTGGCTCTCCCAATCGGTTGCCAGTCTCTTTTTTCCTTTCTTTCCCCACAGATTCGAAATCTAAACTACACATCACACAATGCCTGTTACTGACGTCCTTAAGCGAAAGTCCGGTGTCATCGTCGGCGACGATGTCCGAGCCGTGAGTATCCACGACAAGATCAGTGTCGAGACGACGCGTTTTGTGTAATGACACAATCCGAAAGTCGCTAGCAACACACACTCTCTACACAAACTAACCCAGCTCTCC
modifications: misc_feature: Promoter FBAIN
With B2 the “transcription activity relative to the TEF promoter” value (GUS mRNA) was about 6 times, the “transcriptional activity relative to the TEF promoter” value (GUS mRNA; final day of the 4 day experiment in HGM) was “about 3 times” and the “promoter activity by histochemical staining” value [1] was “active; also recorded: strongest promoter activity”.
